For one protein, Km results are on record in paper PMC6860931, “Role of the malic enzyme in metabolism of the halotolerant methanotroph Methylotuvimicrobium alcaliphilum 20Z” (PLoS ONE, 2019).

Substrate in data set [1]: O=C(O)C[C@H](O)C(=O)O
The experiment in a line: purified protein. The conditions noted are these: NAD+ as co-substrate, assay mixture 0.3 mM NAD+, 2.5 mM MgCl2, 50 mM Tris-HCl, pH 9.0, 30°C.

Substrate in data set [2]: NC(=O)c1ccc[n+]([C@@H]2O[C@H](COP(=O)(O)OP(=O)(O)OC[C@H]3O[C@@H](n4cnc5c(N)ncnc54)[C@H](O)[C@@H]3O)[C@@H](O)[C@H]2O)c1
Description: purified protein. The conditions noted are these: malate as co-substrate, assay mixture 10 mM malate, 2.5 mM MgCl2, 50 mM Tris-HCl, pH 9.0, 30°C, varied: cofactor. The data set is classed as biochemical, Methylotuvimicrobium alcaliphilum.

B1: Mae (malic enzyme from Mtm. alcaliphilum 20Z) (Methylotuvimicrobium alcaliphilum 20Z) (protein)
chain: MTAMSKTPLYIPYAGPALLEMPLLNKGCAFSKEERQTFNLTGLLPPRYETIEEQVQRAYLQYSSFRNAINKHIYLRSIQDNNETLFYRLLQDHLPEMLPIIYTPTVGDACEQFSDIYRSSRGLFISYVDRQQIDDILRNTTKRNVKIIVVTDGERVLGLGDQGIGGMGISIGKLSLYTACGGISPAYTLPVVLDVGTNNEKLLQDPMYMGERHRRIPQAEYDAFIDFFLQAVKRRWPDVIVQFEDFAQPNAMPILQRYRDQLCCFNDDIQGTAAVTVGTLLAACRVKNRKLSEQRVVFVGAGSAGCGIAEQVIAQMRTEGLSDREARHRVYMVDRFGLLTESMTGLRDFQQKLVQVSNRLEDWSIESDYPSLLEVIQYAKPTVLIGVSGQHGIFTETVIRTMTQGCDWPIIFPLSNPPRQVEATPEQIIEWTEGRVLLAAGSPFPPVEYGGKRYDVTQCNNSYIFPGIGLGVIAVQARRISDEMLIAASETLAAASPLANTGQGELLPPLTELPELSKRIAFAVGKVALKQNLALEISDEQLLKSIEENFWQPVYRHYKRVCF
notes: full-length, 1689 bp gene, pET22b(+) NdeI/XhoI, His6-tagged, E. coli BL21 (DE3), Ni-NTA
The term Km denotes the substrate concentration at which the rate is half of its maximum. For the protein B1, the Km in “purified protein [1]” was found to be 5500 ± 800 µM; in the data set “purified protein [2]”, 57 ± 5 µM.
